Data taken from US20180030144A1 (INNATE PHARMA, published 2018).
Where a chain is given by its changes, count along the chain named. Names and notes keep the numbering of the source.

T1: human CD73 expressed at the cell surface (human, UniProt P21589 27-549)
T1 sequence: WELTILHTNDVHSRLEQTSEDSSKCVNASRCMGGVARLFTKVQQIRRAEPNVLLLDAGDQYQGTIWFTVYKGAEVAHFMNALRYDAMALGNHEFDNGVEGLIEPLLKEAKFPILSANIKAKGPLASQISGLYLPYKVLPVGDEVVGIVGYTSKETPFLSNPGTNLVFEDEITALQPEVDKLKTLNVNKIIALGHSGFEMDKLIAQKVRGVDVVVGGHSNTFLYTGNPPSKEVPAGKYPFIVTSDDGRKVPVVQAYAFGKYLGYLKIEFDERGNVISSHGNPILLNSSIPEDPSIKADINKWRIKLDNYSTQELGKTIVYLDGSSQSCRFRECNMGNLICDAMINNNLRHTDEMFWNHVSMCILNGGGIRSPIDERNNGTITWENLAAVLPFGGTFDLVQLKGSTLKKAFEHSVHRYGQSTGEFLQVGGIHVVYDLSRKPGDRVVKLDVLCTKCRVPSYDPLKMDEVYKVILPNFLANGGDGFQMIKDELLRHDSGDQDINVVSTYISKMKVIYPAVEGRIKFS

T2: mouse CD73 expressed on a recombinant host cell line (mouse, UniProt Q61503 29-551)
T2 construct: whole, on cells; also called moCD73
T2 sequence (looked up): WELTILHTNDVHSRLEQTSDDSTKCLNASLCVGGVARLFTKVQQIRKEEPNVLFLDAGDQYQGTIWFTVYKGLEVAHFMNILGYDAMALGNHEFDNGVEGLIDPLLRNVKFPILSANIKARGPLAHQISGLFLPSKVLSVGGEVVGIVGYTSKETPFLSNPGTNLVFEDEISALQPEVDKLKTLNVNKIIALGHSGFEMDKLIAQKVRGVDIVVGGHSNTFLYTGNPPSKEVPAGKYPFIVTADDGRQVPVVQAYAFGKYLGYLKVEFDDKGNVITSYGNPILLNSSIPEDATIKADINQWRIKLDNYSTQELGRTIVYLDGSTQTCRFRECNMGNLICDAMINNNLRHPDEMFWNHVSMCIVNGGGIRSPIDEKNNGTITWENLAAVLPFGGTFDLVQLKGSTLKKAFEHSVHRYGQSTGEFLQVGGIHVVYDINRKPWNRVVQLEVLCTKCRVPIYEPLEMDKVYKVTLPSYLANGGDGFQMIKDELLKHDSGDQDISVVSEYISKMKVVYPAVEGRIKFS

T3: recombinant human CD73-His extracellular domain protein (soluble dimer) (human, UniProt P21589 27-547)
T3 construct: Purified as a dimer; also called huCD73; soluble recombinant human CD73
T3 sequence: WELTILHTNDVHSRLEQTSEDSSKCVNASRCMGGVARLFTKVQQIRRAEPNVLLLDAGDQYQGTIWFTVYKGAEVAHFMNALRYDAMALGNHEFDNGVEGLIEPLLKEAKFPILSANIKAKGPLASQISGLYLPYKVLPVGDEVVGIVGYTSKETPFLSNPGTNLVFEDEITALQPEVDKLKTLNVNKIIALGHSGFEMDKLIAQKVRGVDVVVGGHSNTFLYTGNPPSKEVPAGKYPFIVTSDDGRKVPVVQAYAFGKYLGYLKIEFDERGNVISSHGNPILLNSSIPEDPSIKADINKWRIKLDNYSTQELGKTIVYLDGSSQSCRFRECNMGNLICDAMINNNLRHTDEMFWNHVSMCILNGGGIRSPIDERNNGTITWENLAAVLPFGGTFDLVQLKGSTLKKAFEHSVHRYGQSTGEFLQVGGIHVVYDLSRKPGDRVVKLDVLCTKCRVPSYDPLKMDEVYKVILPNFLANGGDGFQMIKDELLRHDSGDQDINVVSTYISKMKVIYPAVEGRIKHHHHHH

T4: human CD73 mutant 3 (human, UniProt P21589 27-549)
T4 construct: Transfected in HEK293T cells
T4 chain: T1 sequence with A73S, E103A, K107A, E108N, A109S

B1: antibody 8C7 (antibody, human IgG1, V domains shown)
VH: EVQLQQSGPELVKPGASVKVSCKASGYAFASYNMNWVKQSHGKSLDWIGYIDPYNGGSSYNLTFKGKATLTVDKSSTTAYMHLNSLTSEDSAVYYCARGYGNYKAWFAYWGQGTLVTVSA
VL: SIVMTPTPKFLLVSAGDRVTITCKASQSVSNDVAWYQQKPGQSPKLLIYYASTRYTGVPDRFTGSGYGTDFTFTISTVQAEDLAVYFCQQDYSSLTFGAGTKLELKR
notes: Produced as chimeric human IgG1 with heavy chain N297Q (Kabat EU numbering); RTVAAP)
B2: antibody AD2 (Biolegend, product ref. 344004) (antibody, V domains shown)
VH: EVQLQQSGAELVKPGASVKLSCTASGFNIKDTYIHWVKQRPEQGLEWIGRIDPATGNTEYDPKFQGKATITADTSSNTAYLHLSSLTSEDTAVYYCARGYYGSSYPPWFAYWGQGTLVTVS
VL: DIVMTQSHKFMSTSVGDRVSITCKASQDVGSAVAWYQQKPGQSPKLLIYWASTRHTGVPDRFTGSGSGTDFTLTISNVQSEDLADYFCQQYSSYPLTFGAGTKLELK

Key:
[1] = biological target: T1, human CD73 expressed at the cell surface; experiment: cell-based or functional assay
[2] = biological target: T1, human CD73 expressed at the cell surface; experiment: flow cytometry on MDA-MB-231 cells pre-incubated with 200 µM APCP
Description: (§1) MDA-MB-231 cells are available from ATCC (reference HTB-26). 10⁵ cells resuspended in PBS/0.2% BSA/0.02% NaN3 (named “staining buffer”) are distributed into round bottom 96W-microplates. Dose-range of anti-CD73 antibodies was added to the plates and cells are incubated for 45 min at 4° C. Cells were washed three times in staining buffer by spinning plates at 400 g for 3 min at 4° C. PE-coupled goat anti-mouse or goat anti-human IgG Fc fragment secondary antibodies (Beckman Coulter) diluted in staining buffer were added to the cells and plates are incubated for 30 additional minutes at 4° C. Cells were washed three times as described above and analyzed on an Accury C6 flow cytometer equipped with an HTFC plate reader.
(§2) Cells were pre-incubated at 37° C. for 30 minutes in the presence or not of 200 μM adenosine 5′-(α,β-methylene)diphosphate (APCP), followed by addition of antibodies. APCP is an analog of ADP and binds irreversibly to the active site of CD73. When bound by APCP, CD73 changes conformation from an “open” conformation to a “closed” conformation. mAbs 11E1, 8C7, 3C12 and 6E1 bound MDA-MB-231 cells with good affinity both in the presence and absence of APCP. In the presence of APCP, the EC50 was similar to that observed in the absence of APCP. The plateau for maximal binding of 11E1, 8C7, 3C12 and 6E1 was higher in the absence of APCP than in the presence of APCP, while the inverse was true for AD2.

[3] = biological target: T1, human CD73 expressed at the cell surface; experiment: cell-based or functional assay; remark: listed apart in the source
[4] = biological target: T1, human CD73 expressed at the cell surface; experiment: cell-based or functional assay; remark: listed apart in the source
[5] = biological target: T1, human CD73 expressed at the cell surface; experiment: flow cytometry titration on MDA-MB-231 cells (endogenous CD73), median of fluorescence
Description: as §1
Median of fluorescence vs. antibodies concentration was plotted on graphs and EC50 is calculated using Graph Pad Prism program.

[6] = biological target: T2, mouse CD73 expressed on a recombinant …; experiment: flow cytometry titration on a mouse-CD73-expressing recombinant host cell line, median of fluorescence
[7] = biological target: T3, recombinant human CD73-His …; experiment: ELISA, plate-coated recombinant human CD73
Description: 5 μg/ml of recombinant human CD73 protein (IPH, isoform E6) was coated on MaxiSorp ELISA plates (Nunc) in PBS, overnight at 4° C. Plates were washed 5 times in washing buffer (PBS, 0.05% Tween20) and unspecific sites were saturated by adding 200 μl/w TBS starting block buffer (Thermo Ficher). Dose-range of anti-CD73 antibodies were incubated for 2 h at 37° C. Plates were washed 5 times in washing buffer and HRP-coupled goat anti-human or goat anti-mouse IgG Fc fragment secondary antibody (Bethyl, 1/50000) was added for 1 hr at RT to detect bound anti-CD73 antibodies. […] The enzymatic reaction was stopped by adding HCl 1M and O.D. was measured at 450 nm. Optical density vs. anti-CD73 Ab concentration was plotted on graphs and EC50 is calculated using GraphPad Prism software.

[8] = biological target: T1, human CD73 expressed at the cell surface; experiment: flow cytometry on MDA-MB-231 cells, medium (no APCP)
Description: as §1, §2

[9] = biological target: T5, cynomolgus CD73 expressed on a recombinant host cell line (cynomolgus); experiment: flow cytometry titration on a cynomolgus-CD73-expressing recombinant host cell line, median of fluorescence
T5 construct: whole, on cells; also called cynoCD73

[10] = biological target: T3, recombinant human CD73-His …; experiment: cell-based or functional assay
[11] = biological target: T1, human CD73 expressed at the cell surface; experiment: flow cytometry titration on a human-CD73-expressing recombinant host cell line, median of fluorescence
[12] = biological target: T1, human CD73 expressed at the cell surface; experiment: flow cytometry titration on HEK293T cells transfected with wild type human CD73, MFI PE
human CD73 mutant 3 = biological target: T4, human CD73 mutant 3; experiment: flow cytometry titration on HEK293T cells transfected with human CD73 mutant 3, MFI PE

| Binder | EC50 for neutralization of the enzymatic activity of cellular CD73 (MDA-MB-231 cells, free phosphate from AMP) [1] | EC50 [2] | EC50 for neutralization of 5'-ectonucleotidase activity, mean over MDA-MB-231, H292 and A375 cells [3] | EC70 for neutralization of 5'-ectonucleotidase activity, mean over MDA-MB-231, H292 and A375 cells [3] | EC100 for neutralization of 5'-ectonucleotidase activity, mean over MDA-MB-231, H292 and A375 cells [3] | decrease of the enzymatic activity of cellular CD73 (MDA-MB-231 cells) [4] | EC50 (read off the curve) [5] | binding result [6] | EC50 [7] | EC50 [8] | EC50 (read off the curve) [9] | EC50 for CD73 blockade (enzymatic activity of soluble recombinant human CD73-his) [10] | EC50 (read off the curve) [11] | EC50 (read off the curve) [12] | EC50 (read off the curve) (human CD73 mutant 3) |
| --- | --- | --- | --- | --- | --- | --- | --- | --- | --- | --- | --- | --- | --- | --- | --- |
| B1 | 0.319 µg/mL | 0.143 µg/mL | 0.21 µg/mL | 0.46 µg/mL | 0.72 µg/mL | > 75% | ~0.1 µg/mL | no binding (tested: about 30 µg/ml) | 0.009 µg/mL | 0.0903 µg/mL | ~0.4 µg/mL | 1.29 µg/mL | ~0.1 µg/mL |  |  |
| B2 |  | 0.0959 µg/mL |  |  |  |  |  |  |  | 0.0629 µg/mL |  |  |  | ~0.2 µg/mL | ~0.1 µg/mL |
